The test concerns the target human GLP-1 receptor (human, UniProt P43220). In words: cell-based or functional assay.

Where no end group is shown, it is not given here. [ ]: non-standard residue; d: D form. Aib = CC(C)(N)C(=O)O

Turning to HGEGTFTSDVSSYLEEEAVKEFIAWLVEKVKEKL-NH2 [[Gly8,Glu22,Glu23,Val25,Glu34,Lys35,Val36,Lys37]-GLP-1-(7-37)-peptidyl-Glu-Lys-Leu amide], the “CRE luciferase EC50, 0% HSA” value is 0.3 nM and the “CRE luciferase EC50, 1% HSA” value was 0.076 nM.

B1: [Aib8,Glu22,Glu23,Val25,Glu34,Lys35,Val36,Lys37]-GLP-1-(7-37)-peptidyl-Glu-Leu-Leu amide (peptide)
peptide: H[Aib]EGTFTSDVSSYLEEEAVKEFIAWLVEKVKELL-NH2
modifications: N-terminus assumed
SMILES: CC[C@H](C)[C@H](NC(=O)[C@H](Cc1ccccc1)NC(=O)[C@H](CCC(=O)O)NC(=O)[C@H](CCCCN)NC(=O)[C@@H](NC(=O)[C@H](C)NC(=O)[C@H](CCC(=O)O)NC(=O)[C@H](CCC(=O)O)NC(=O)[C@H](CCC(=O)O)NC(=O)[C@H](CC(C)C)NC(=O)[C@H](Cc1ccc(O)cc1)NC(=O)[C@H](CO)NC(=O)[C@H](CO)NC(=O)[C@@H](NC(=O)[C@H](CC(=O)O)NC(=O)[C@H](CO)NC(=O)[C@@H](NC(=O)[C@H](Cc1ccccc1)NC(=O)[C@@H](NC(=O)CNC(=O)[C@H](CCC(=O)O)NC(=O)C(C)(C)NC(=O)[C@@H](N)Cc1c[nH]cn1)[C@@H](C)O)[C@@H](C)O)C(C)C)C(C)C)C(=O)N[C@@H](C)C(=O)N[C@@H](Cc1c[nH]c2ccccc12)C(=O)N[C@@H](CC(C)C)C(=O)N[C@H](C(=O)N[C@@H](CCC(=O)O)C(=O)N[C@@H](CCCCN)C(=O)N[C@H](C(=O)N[C@@H](CCCCN)C(=O)N[C@@H](CCC(=O)O)C(=O)N[C@@H](CC(C)C)C(=O)N[C@@H](CC(C)C)C(N)=O)C(C)C)C(C)C
With B1, the “CRE luciferase EC50, 0% HSA” value stood at 0.439 nM and the “CRE luciferase EC50, 1% HSA” value was found to be 0.11 nM.

B2: [Aib8,Glu23,Val25,Glu34,Lys35,Val36,Lys37]-GLP-1-(7-37)-peptidyl-Gly-Phe-Leu amide (peptide)
peptide: H[Aib]EGTFTSDVSSYLEGEAVKEFIAWLVEKVKGFL-NH2
modifications: N-terminus assumed
SMILES: CC[C@H](C)[C@H](NC(=O)[C@H](Cc1ccccc1)NC(=O)[C@H](CCC(=O)O)NC(=O)[C@H](CCCCN)NC(=O)[C@@H](NC(=O)[C@H](C)NC(=O)[C@H](CCC(=O)O)NC(=O)CNC(=O)[C@H](CCC(=O)O)NC(=O)[C@H](CC(C)C)NC(=O)[C@H](Cc1ccc(O)cc1)NC(=O)[C@H](CO)NC(=O)[C@H](CO)NC(=O)[C@@H](NC(=O)[C@H](CC(=O)O)NC(=O)[C@H](CO)NC(=O)[C@@H](NC(=O)[C@H](Cc1ccccc1)NC(=O)[C@@H](NC(=O)CNC(=O)[C@H](CCC(=O)O)NC(=O)C(C)(C)NC(=O)[C@@H](N)Cc1c[nH]cn1)[C@@H](C)O)[C@@H](C)O)C(C)C)C(C)C)C(=O)N[C@@H](C)C(=O)N[C@@H](Cc1c[nH]c2ccccc12)C(=O)N[C@@H](CC(C)C)C(=O)N[C@H](C(=O)N[C@@H](CCC(=O)O)C(=O)N[C@@H](CCCCN)C(=O)N[C@H](C(=O)N[C@@H](CCCCN)C(=O)NCC(=O)N[C@@H](Cc1ccccc1)C(=O)N[C@@H](CC(C)C)C(N)=O)C(C)C)C(C)C
Take B2: the “CRE luciferase EC50, 0% HSA” value stood at 0.129 nM and the “CRE luciferase EC50, 1% HSA” value was 0.032 nM.

B3: [Aib8,Glu23,Glu34,Lys35,Aib36,Lys37]-GLP-1-(7-37)-peptidyl-Glu-Phe-Leu amide (peptide)
peptide: H[Aib]EGTFTSDVSSYLEGEAAKEFIAWLVEK[Aib]KEFL-NH2
modifications: N-terminus assumed
SMILES: CC[C@H](C)[C@H](NC(=O)[C@H](Cc1ccccc1)NC(=O)[C@H](CCC(=O)O)NC(=O)[C@H](CCCCN)NC(=O)[C@H](C)NC(=O)[C@H](C)NC(=O)[C@H](CCC(=O)O)NC(=O)CNC(=O)[C@H](CCC(=O)O)NC(=O)[C@H](CC(C)C)NC(=O)[C@H](Cc1ccc(O)cc1)NC(=O)[C@H](CO)NC(=O)[C@H](CO)NC(=O)[C@@H](NC(=O)[C@H](CC(=O)O)NC(=O)[C@H](CO)NC(=O)[C@@H](NC(=O)[C@H](Cc1ccccc1)NC(=O)[C@@H](NC(=O)CNC(=O)[C@H](CCC(=O)O)NC(=O)C(C)(C)NC(=O)[C@@H](N)Cc1c[nH]cn1)[C@@H](C)O)[C@@H](C)O)C(C)C)C(=O)N[C@@H](C)C(=O)N[C@@H](Cc1c[nH]c2ccccc12)C(=O)N[C@@H](CC(C)C)C(=O)N[C@H](C(=O)N[C@@H](CCC(=O)O)C(=O)N[C@@H](CCCCN)C(=O)NC(C)(C)C(=O)N[C@@H](CCCCN)C(=O)N[C@@H](CCC(=O)O)C(=O)N[C@@H](Cc1ccccc1)C(=O)N[C@@H](CC(C)C)C(N)=O)C(C)C
For the molecule B3, the “CRE luciferase EC50, 0% HSA” value was found to be 0.163 nM and the “CRE luciferase EC50, 1% HSA” value is 0.143 nM.

B4: [Aib8,Glu23,Val25,Glu34,Lys35,Gly36,Lys37]-GLP-1-(7-37)-peptidyl-Glu-Phe-Leu amide (peptide)
peptide: H[Aib]EGTFTSDVSSYLEGEAVKEFIAWLVEKGKEFL-NH2
modifications: N-terminus assumed
SMILES: CC[C@H](C)[C@H](NC(=O)[C@H](Cc1ccccc1)NC(=O)[C@H](CCC(=O)O)NC(=O)[C@H](CCCCN)NC(=O)[C@@H](NC(=O)[C@H](C)NC(=O)[C@H](CCC(=O)O)NC(=O)CNC(=O)[C@H](CCC(=O)O)NC(=O)[C@H](CC(C)C)NC(=O)[C@H](Cc1ccc(O)cc1)NC(=O)[C@H](CO)NC(=O)[C@H](CO)NC(=O)[C@@H](NC(=O)[C@H](CC(=O)O)NC(=O)[C@H](CO)NC(=O)[C@@H](NC(=O)[C@H](Cc1ccccc1)NC(=O)[C@@H](NC(=O)CNC(=O)[C@H](CCC(=O)O)NC(=O)C(C)(C)NC(=O)[C@@H](N)Cc1c[nH]cn1)[C@@H](C)O)[C@@H](C)O)C(C)C)C(C)C)C(=O)N[C@@H](C)C(=O)N[C@@H](Cc1c[nH]c2ccccc12)C(=O)N[C@@H](CC(C)C)C(=O)N[C@H](C(=O)N[C@@H](CCC(=O)O)C(=O)N[C@@H](CCCCN)C(=O)NCC(=O)N[C@@H](CCCCN)C(=O)N[C@@H](CCC(=O)O)C(=O)N[C@@H](Cc1ccccc1)C(=O)N[C@@H](CC(C)C)C(N)=O)C(C)C
B4: the “CRE luciferase EC50, 0% HSA” value came out at 0.034 nM and the “CRE luciferase EC50, 1% HSA” value came to 0.007 nM.

B5: [Aib8,Glu23,Val25,Glu34,Lys35,Val36,Lys37]-GLP-1-(7-37)-peptidyl-Glu-Lys amide (peptide)
peptide: H[Aib]EGTFTSDVSSYLEGEAVKEFIAWLVEKVKEK-NH2
modifications: N-terminus assumed
SMILES: CC[C@H](C)[C@H](NC(=O)[C@H](Cc1ccccc1)NC(=O)[C@H](CCC(=O)O)NC(=O)[C@H](CCCCN)NC(=O)[C@@H](NC(=O)[C@H](C)NC(=O)[C@H](CCC(=O)O)NC(=O)CNC(=O)[C@H](CCC(=O)O)NC(=O)[C@H](CC(C)C)NC(=O)[C@H](Cc1ccc(O)cc1)NC(=O)[C@H](CO)NC(=O)[C@H](CO)NC(=O)[C@@H](NC(=O)[C@H](CC(=O)O)NC(=O)[C@H](CO)NC(=O)[C@@H](NC(=O)[C@H](Cc1ccccc1)NC(=O)[C@@H](NC(=O)CNC(=O)[C@H](CCC(=O)O)NC(=O)C(C)(C)NC(=O)[C@@H](N)Cc1c[nH]cn1)[C@@H](C)O)[C@@H](C)O)C(C)C)C(C)C)C(=O)N[C@@H](C)C(=O)N[C@@H](Cc1c[nH]c2ccccc12)C(=O)N[C@@H](CC(C)C)C(=O)N[C@H](C(=O)N[C@@H](CCC(=O)O)C(=O)N[C@@H](CCCCN)C(=O)N[C@H](C(=O)N[C@@H](CCCCN)C(=O)N[C@@H](CCC(=O)O)C(=O)N[C@@H](CCCCN)C(N)=O)C(C)C)C(C)C
B5: the “CRE luciferase EC50, 0% HSA” value is 0.043 nM and the “CRE luciferase EC50, 1% HSA” value was 0.014 nM.
In the case of HAEGTFTSDVSSYLEGQAAKEFIAWLVEKVKEHL-NH2 [[Glu34,Lys35,Val36,Lys37]-GLP-1-(7-37)-peptidyl-Glu-His-Leu amide], the “CRE luciferase EC50, 0% HSA” value amounted to 0.04 nM and the “CRE luciferase EC50, 1% HSA” value worked out at 0.01 nM.

B6: [Aib8,Glu23,Val25,Glu30,Glu34,Lys35,Val36,Lys37]-GLP-1-(7-37)-peptidyl-Glu-Lys-Leu amide (peptide)
peptide: H[Aib]EGTFTSDVSSYLEGEAVKEFIEWLVEKVKEKL-NH2
modifications: N-terminus assumed
SMILES: CC[C@H](C)[C@H](NC(=O)[C@H](Cc1ccccc1)NC(=O)[C@H](CCC(=O)O)NC(=O)[C@H](CCCCN)NC(=O)[C@@H](NC(=O)[C@H](C)NC(=O)[C@H](CCC(=O)O)NC(=O)CNC(=O)[C@H](CCC(=O)O)NC(=O)[C@H](CC(C)C)NC(=O)[C@H](Cc1ccc(O)cc1)NC(=O)[C@H](CO)NC(=O)[C@H](CO)NC(=O)[C@@H](NC(=O)[C@H](CC(=O)O)NC(=O)[C@H](CO)NC(=O)[C@@H](NC(=O)[C@H](Cc1ccccc1)NC(=O)[C@@H](NC(=O)CNC(=O)[C@H](CCC(=O)O)NC(=O)C(C)(C)NC(=O)[C@@H](N)Cc1c[nH]cn1)[C@@H](C)O)[C@@H](C)O)C(C)C)C(C)C)C(=O)N[C@@H](CCC(=O)O)C(=O)N[C@@H](Cc1c[nH]c2ccccc12)C(=O)N[C@@H](CC(C)C)C(=O)N[C@H](C(=O)N[C@@H](CCC(=O)O)C(=O)N[C@@H](CCCCN)C(=O)N[C@H](C(=O)N[C@@H](CCCCN)C(=O)N[C@@H](CCC(=O)O)C(=O)N[C@@H](CCCCN)C(=O)N[C@@H](CC(C)C)C(N)=O)C(C)C)C(C)C
For the molecule B6, the “CRE luciferase EC50, 0% HSA” value turned out to be 0.163 nM and the “CRE luciferase EC50, 1% HSA” value was found to be 0.039 nM.

B7: [Aib8,Glu23,Val25,Glu34,Lys35,Val36,Lys37]-GLP-1-(7-37)-peptidyl-Asp-Phe-Leu amide (peptide)
peptide: H[Aib]EGTFTSDVSSYLEGEAVKEFIAWLVEKVKDFL-NH2
modifications: N-terminus assumed
SMILES: CC[C@H](C)[C@H](NC(=O)[C@H](Cc1ccccc1)NC(=O)[C@H](CCC(=O)O)NC(=O)[C@H](CCCCN)NC(=O)[C@@H](NC(=O)[C@H](C)NC(=O)[C@H](CCC(=O)O)NC(=O)CNC(=O)[C@H](CCC(=O)O)NC(=O)[C@H](CC(C)C)NC(=O)[C@H](Cc1ccc(O)cc1)NC(=O)[C@H](CO)NC(=O)[C@H](CO)NC(=O)[C@@H](NC(=O)[C@H](CC(=O)O)NC(=O)[C@H](CO)NC(=O)[C@@H](NC(=O)[C@H](Cc1ccccc1)NC(=O)[C@@H](NC(=O)CNC(=O)[C@H](CCC(=O)O)NC(=O)C(C)(C)NC(=O)[C@@H](N)Cc1c[nH]cn1)[C@@H](C)O)[C@@H](C)O)C(C)C)C(C)C)C(=O)N[C@@H](C)C(=O)N[C@@H](Cc1c[nH]c2ccccc12)C(=O)N[C@@H](CC(C)C)C(=O)N[C@H](C(=O)N[C@@H](CCC(=O)O)C(=O)N[C@@H](CCCCN)C(=O)N[C@H](C(=O)N[C@@H](CCCCN)C(=O)N[C@@H](CC(=O)O)C(=O)N[C@@H](Cc1ccccc1)C(=O)N[C@@H](CC(C)C)C(N)=O)C(C)C)C(C)C
For B7, the “CRE luciferase EC50, 0% HSA” value was determined as 0.323 nM and the “CRE luciferase EC50, 1% HSA” value was 0.128 nM.

(Values after patent publication US20150344540A1, “NOVEL GLP-1 RECEPTOR AGONISTS WITH CHOLESTEROL EFFLUX ACTIVITY” (NOVO NORDISK A/S, priority 2012, published 2015).)
